Measurements: US20190262327A1, “COMBINATION OF A BACE INHIBITOR AND AN ANTIBODY OR ANTIGEN-BINDING FRAGMENT FOR THE TREATMENT OF A DISORDER ASSOCIATED WITH THE ACCUMULATION OF AMYLOID BETA” (ASTRAZENECA AB, priority 2016, published 2019)

Assays:
[1] = biological target: T1, human Amyloid beta 1-42 peptide (Homo sapiens, UniProt P05067); experiment: Abet0144-GL HTRF epitope competition assay; assay type: binding; conditions: purified competitor scFv; inhibition of human Amyloid beta 1-42 : Abet0144-GL IgG1-TM complex
T1 construct: biotinylated human Amyloid beta 1-42 peptide (rpeptide, USA; cat: A1117); purchased rPeptide, USA A1117; host or cells: synthetic peptide
Procedure: Two thousand and twenty four scFv chosen at random from selection rounds 3 and 4 of the targeted mutagenesis approach described in section 1.2 were expressed in bacteria to produce unpurified periplasmic scFv. Those scFv capable of binding synthetic human amyloid beta 1-42 peptide via the same epitope as Abet0144-GL IgG1-TM were elucidated in a competition format assay, using the HTRF™ platform. Specifically, fluorescence resonance energy transfer (FRET) was measured between streptavidin cryptate (associated with biotinylated amyloid beta 1-42 peptide) and anti-human Fc XL665 (associated with Abet0144-GL IgG1-TM) in the presence of a single concentration of each unpurified periplasmic test scFv.
A ‘Total’ binding signal was determined by analysing the binding of Abet0144-GL IgG1-TM to synthetic human Amyloid beta 1-42 peptide in the absence of competitor peptide. The ‘Sample’ signals were derived from analysing the binding of Abet0144-GL IgG1-TM to synthetic human Amyloid beta 1-42 peptide in the presence of a test scFv sample. Finally, a ‘Cryptate Blank’ signal was determined by analysing the fluorescence mediated by the detection reagent cocktail alone.
Unpurified periplasmic scFv were supplied in sample buffer consisting of 50 mM MOPS, pH 7.4, 0.5 mM EDTA, and 0.5 M sucrose. […] Assay plates were sealed and then incubated for 3 hours at room temperature in the dark, prior to measuring time-resolved fluorescence at 620 and 665 nm emission wavelengths on a fluorescence plate reader.
Data were analysed by calculating % Delta F values for each sample. % Delta F was determined according to equation 1. […]
Data were again analysed by calculating the % Delta F and % Total binding values for each sample. In addition, a % Inhibition value for each concentration of purified scFv was also calculated as described in Equation 3: […]

[2] = biological target: T1, human Amyloid beta 1-42 peptide; experiment: Surface Plasmon Resonance kinetic profiling of purified scFv (ProteOn); assay type: binding; conditions: biotinylated human Amyloid beta 1-42 on streptavidin chip
Source text: Surface Plasmon Resonance was used to analyse the purified scFv clones that had shown significant improvement in binding affinity for human Amyloid beta 1-42 peptide over the parent sequence, Abet0144-GL, in the HTRF™ epitope competition assay (sections 1.3-1.6). Briefly, the ProteOn Protein Interaction Array System (BioRad, USA) was used to assess the kinetic parameters of the interaction between each purified scFv and synthetically produced human Amyloid beta 1-42 peptide. These experiments were performed essentially as described by Karlsson et al. (Karlsson et al., 1991).
The affinity of binding between each test scFv and human Amyloid beta 1-42 was estimated using assays in which biotinylated synthetic human Amyloid beta 1-42 peptide (rPeptide, USA; cat: Al 117) was non-covalently bound via a biotin/streptavidin interaction to a proprietary streptavidin chip (NTA 176-5021) at five different surface densities. The chip surface was regenerated between cycles by a single 60 second injection of 10 mM Glycine pH 2.0 to remove scFv bound to the peptide.
Each scFv at 100-200 nM was sequentially passed over the peptide surface for a sufficient amount of time to observe sensorgrams that could be fitted to an appropriate binding model with confidence. An irrelevant scFv blank was subtracted from the main dataset to reduce the impact of any buffer artefacts or non-specific binding effects. An appropriate binding model was then fitted to the data.

T1 sequence (P05067 672-713): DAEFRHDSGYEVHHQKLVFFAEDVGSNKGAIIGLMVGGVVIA

B1: Abet0380: optimized anti-Aβ1-42 clone derived from Abet0144-GL, non-germlined (protein)
scFv (part 1 of 2): EVQLLESGGGLVQPGGSLRLSCAASMGNFNYQTMWWVRQAPGRGLEWVSVIGKTNENIAYADSVKGRFTISRDNSKNTLYLQMNSLRAEDTAVYYCAREWMDHSRPYYYYGMDVWGQGTLVTVSS
scFv (part 2 of 2): SYELTQPPSVSVSPGQTASITCSGHNLEDKFASWYQQKPGQSPVLVIYRDDKRPSGIPERFSASNSGHTATLTISGTQATDEADYYCSSQDTVTRVFGGGTKLTVL
modifications: left off: small tags and cut ends
notes: optimized anti-Aβ1-42 clone derived from Abet0144-GL, non-germlined
- potency over the parent Abet0144-GL scFv sequence (FIG. 1) [1]: significant improvement in potency
- ka [2]: 193000 M⁻¹ s⁻¹
- kd [2]: 2.85e-05 s⁻¹
- ka ([2]; listed as Abet0380 scFv): 193000 M⁻¹ s⁻¹
- kd ([2]; listed as Abet0380 scFv): 2.85e-05 s⁻¹

B2: Abet0377: optimized anti-Aβ1-42 clone from quaternary library (protein)
scFv (part 1 of 2): EVQLLESGGGLVQPGGSLRLSCAASGFNFNEQTLWWVRQAPGKGLEWVSVIGVGTKNIAYADTVKGRFTISRDNSKNTLYLQMNSLRAEDTAVYYCAREWMDHSRPYYYYGMDVWGQGTLVTVSS
scFv (part 2 of 2): SYELTQPPSVSVSPGQTASITCSGHNTEHKWISWYQQKPGQSPVLVIYRDDKRPSGIPERFSATNSGHTATLTISGTQATDEADYYCSSQDTVTRVFGGGTKLTVL
modifications: left off: small tags and cut ends
notes: optimized anti-Aβ1-42 clone from quaternary library
- potency over the parent Abet0144-GL scFv sequence (FIG. 1) [1]: significant improvement in potency
- ka [2]: 196000 M⁻¹ s⁻¹
- kd [2]: 3.02e-05 s⁻¹

B3: Abet0369: optimized anti-Aβ1-42 clone derived from Abet0144-GL (protein)
scFv (part 1 of 2): EVQLLESGGGLVQPGGSLRLSCAASSFQISKNTMWWVRRAPGKGLEWVSVIGKDETRFNYADSVKGRFTISRDNSKNTLYLQMNSLRAEDTAVYYCAREWMDHSRPYYYYGMDVWGQGTLVTVSS
scFv (part 2 of 2): SYGLTQPPSVSVSPGQTASITCSGRNIGDSWVAWYQQKPGQSPVLVIYRDDKRPSGIPERFSASNSGHTATLTISGTQATDEADYYCSSQDTVTRVFGGGTKLTVL
modifications: left off: small tags and cut ends
notes: optimized anti-Aβ1-42 clone derived from Abet0144-GL
- potency over the parent Abet0144-GL scFv sequence (FIG. 1) [1]: significant improvement in potency
- ka [2]: 327000 M⁻¹ s⁻¹
- kd [2]: 4.34e-05 s⁻¹
